Literature values as cited in paper PMC8033747.

Target: CHMP3 (Homo sapiens) (UniProt Q9Y3E7)
Test: SPR

Sequence of CHMP3 (Homo sapiens) (Q9Y3E7 2-222): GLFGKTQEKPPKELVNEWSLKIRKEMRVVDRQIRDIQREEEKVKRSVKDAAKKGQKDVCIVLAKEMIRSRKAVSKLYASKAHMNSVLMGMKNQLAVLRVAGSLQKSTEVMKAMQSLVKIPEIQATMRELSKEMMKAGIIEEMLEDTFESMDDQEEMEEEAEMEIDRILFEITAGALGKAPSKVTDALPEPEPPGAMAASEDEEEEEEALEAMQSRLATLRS
Sequence of CHMP2A (O43633 whole entry): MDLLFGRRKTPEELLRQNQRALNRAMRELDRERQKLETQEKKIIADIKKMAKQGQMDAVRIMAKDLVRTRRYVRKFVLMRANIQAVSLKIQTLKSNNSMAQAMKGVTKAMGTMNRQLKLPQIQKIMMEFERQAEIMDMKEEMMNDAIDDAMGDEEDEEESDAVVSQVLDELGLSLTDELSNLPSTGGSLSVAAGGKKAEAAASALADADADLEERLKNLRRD
Sequence of CHMP2B (Q9UQN3 2-213): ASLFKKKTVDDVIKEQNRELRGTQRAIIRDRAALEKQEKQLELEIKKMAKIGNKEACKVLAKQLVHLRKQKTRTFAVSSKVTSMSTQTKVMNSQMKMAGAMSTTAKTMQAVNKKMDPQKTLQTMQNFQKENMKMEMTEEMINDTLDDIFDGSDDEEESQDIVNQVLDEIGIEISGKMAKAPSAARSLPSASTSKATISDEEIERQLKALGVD

Row | Substance | Kd [nM]
1 | CHMP2B (from UniProt Q9UQN3) | 1400
2 | CHMP2A (from UniProt O43633) | 3200
